This note sets out measurements from US20180273587A1 (AILERON THERAPEUTICS, published 2018).

For orientation: Ki means a measure of affinity in units of concentration, obtained from inhibition or displacement. Low values mean tighter binding, high ones weaker binding.

Assay in all cases: Ki; method not stated; unit not printed (nM per Table 6)
Assay [1] concerns the target T1, BCL-XL (UniProt Q07817 1-209).
T1 construct: Target of the Ki columns

Assay [2] addresses T2, BCL-2 (UniProt P10415 1-217, limits assumed).
T2 construct: Target of the Ki columns

In assay [3] the target is T3, MCL-1 (UniProt Q07820 172-327, limits assumed).
T3 construct: Target of the Ki columns; also called Myeloid cell leukemia 1

Starred links: 1 amine or outer side, 2 acyl side, 3 side chain; linkers in the order of their positions; H or OH if unused. Positions of bridges follow the written chain, without caps; N, C: chain ends. Non-standard residues stand in square brackets, D forms with d. St = two pentenyl-alanine olefin side chains, each crosslinked to another residue (stitch), C=CCCCC(CCCC=C)(N[*:1])C(=O)[*:2]; Phe(4-F) = N[C@@H](Cc1ccc(F)cc1)C(=O)O; 2Nal = N[C@@H](Cc1ccc2ccccc2c1)C(=O)O; hPhe = N[C@@H](CCc1ccccc1)C(=O)O; R8 = C=CCCCCCC[C@@](C)(N)C(=O)O; Cha = N[C@@H](CC1CCCCC1)C(=O)O; S8 = C=CCCCCCC[C@](C)(N)C(=O)O; S5 = C=CCCC[C@](C)(N)C(=O)O

T2 sequence (P10415 1-217 limits assumed): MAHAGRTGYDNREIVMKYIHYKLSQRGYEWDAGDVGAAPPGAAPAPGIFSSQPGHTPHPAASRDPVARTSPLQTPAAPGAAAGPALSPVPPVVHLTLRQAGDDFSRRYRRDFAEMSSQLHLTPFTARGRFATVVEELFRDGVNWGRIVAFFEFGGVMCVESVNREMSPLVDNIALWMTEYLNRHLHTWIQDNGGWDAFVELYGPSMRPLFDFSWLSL
T3 sequence (Q07820 172-327 limits assumed): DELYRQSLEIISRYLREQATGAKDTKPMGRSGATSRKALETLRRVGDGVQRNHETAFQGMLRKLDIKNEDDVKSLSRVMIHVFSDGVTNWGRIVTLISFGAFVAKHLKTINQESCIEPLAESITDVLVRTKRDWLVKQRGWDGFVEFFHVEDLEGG
T1 sequence (Q07817 1-209): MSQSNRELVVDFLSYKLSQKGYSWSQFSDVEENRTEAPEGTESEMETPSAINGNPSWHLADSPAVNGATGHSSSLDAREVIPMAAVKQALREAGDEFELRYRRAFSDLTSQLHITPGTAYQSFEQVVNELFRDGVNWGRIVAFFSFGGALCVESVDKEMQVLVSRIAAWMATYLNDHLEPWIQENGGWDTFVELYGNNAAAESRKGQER

B1: SEQ ID NO: 1736 (peptide)
peptide: Ac-IWIALALR[R8]IGDAFN[S5]YYA-NH2
modifications: staple 9-16
SMILES: CC[C@H](C)[C@H](NC(C)=O)C(=O)N[C@@H](Cc1c[nH]c2ccccc12)C(=O)N[C@H](C(=O)N[C@@H](C)C(=O)N[C@@H](CC(C)C)C(=O)N[C@@H](C)C(=O)N[C@@H](CC(C)C)C(=O)N[C@@H](CCCNC(=N)N)C(=O)N[C@]1(C)CCCCCCC=CCCC[C@@](C)(C(=O)N[C@@H](Cc2ccc(O)cc2)C(=O)N[C@@H](Cc2ccc(O)cc2)C(=O)N[C@@H](C)C(N)=O)NC(=O)[C@H](CC(N)=O)NC(=O)[C@H](Cc2ccccc2)NC(=O)[C@H](C)NC(=O)[C@H](CC(=O)O)NC(=O)CNC(=O)[C@H]([C@@H](C)CC)NC1=O)[C@@H](C)CC
As to B1, the results for the inhibition constant (Ki) in assay [1], in assay [2] and in assay [3] were 37.9 nM, 75.8 nM and 11.6 nM, respectively.

B2: SEQ ID NO: 1742 (peptide)
peptide: Ac-IWIAQALR[R8]IGDAWN[S5]YYA-NH2
modifications: staple 9-16
SMILES: CC[C@H](C)[C@H](NC(C)=O)C(=O)N[C@@H](Cc1c[nH]c2ccccc12)C(=O)N[C@H](C(=O)N[C@@H](C)C(=O)N[C@@H](CCC(N)=O)C(=O)N[C@@H](C)C(=O)N[C@@H](CC(C)C)C(=O)N[C@@H](CCCNC(=N)N)C(=O)N[C@]1(C)CCCCCCC=CCCC[C@@](C)(C(=O)N[C@@H](Cc2ccc(O)cc2)C(=O)N[C@@H](Cc2ccc(O)cc2)C(=O)N[C@@H](C)C(N)=O)NC(=O)[C@H](CC(N)=O)NC(=O)[C@H](Cc2c[nH]c3ccccc23)NC(=O)[C@H](C)NC(=O)[C@H](CC(=O)O)NC(=O)CNC(=O)[C@H]([C@@H](C)CC)NC1=O)[C@@H](C)CC
With B2, the values for the Ki in assay [1], in assay [2] and in assay [3] were 14.5 nM, 17.7 nM and 2.3 nM, respectively.

B3: SEQ ID NO: 1759 (peptide)
peptide: Ac-IWIAQALR[R8]IGDAFN[S5]Y[2Nal]A-NH2
modifications: staple 9-16
SMILES: CC[C@H](C)[C@H](NC(C)=O)C(=O)N[C@@H](Cc1c[nH]c2ccccc12)C(=O)N[C@H](C(=O)N[C@@H](C)C(=O)N[C@@H](CCC(N)=O)C(=O)N[C@@H](C)C(=O)N[C@@H](CC(C)C)C(=O)N[C@@H](CCCNC(=N)N)C(=O)N[C@]1(C)CCCCCCC=CCCC[C@@](C)(C(=O)N[C@@H](Cc2ccc(O)cc2)C(=O)N[C@@H](Cc2ccc3ccccc3c2)C(=O)N[C@@H](C)C(N)=O)NC(=O)[C@H](CC(N)=O)NC(=O)[C@H](Cc2ccccc2)NC(=O)[C@H](C)NC(=O)[C@H](CC(=O)O)NC(=O)CNC(=O)[C@H]([C@@H](C)CC)NC1=O)[C@@H](C)CC
Turning to B3, the Ki in assay [1] turned out to be 26.1 nM; in assay [2], 65.2 nM; in assay [3] it was 8 nM.

B4: SEQ ID NO: 1758 (peptide)
peptide: Ac-IWIAQALR[R8]IGDAFN[S5]YWA-NH2
modifications: staple 9-16
SMILES: CC[C@H](C)[C@H](NC(C)=O)C(=O)N[C@@H](Cc1c[nH]c2ccccc12)C(=O)N[C@H](C(=O)N[C@@H](C)C(=O)N[C@@H](CCC(N)=O)C(=O)N[C@@H](C)C(=O)N[C@@H](CC(C)C)C(=O)N[C@@H](CCCNC(=N)N)C(=O)N[C@]1(C)CCCCCCC=CCCC[C@@](C)(C(=O)N[C@@H](Cc2ccc(O)cc2)C(=O)N[C@@H](Cc2c[nH]c3ccccc23)C(=O)N[C@@H](C)C(N)=O)NC(=O)[C@H](CC(N)=O)NC(=O)[C@H](Cc2ccccc2)NC(=O)[C@H](C)NC(=O)[C@H](CC(=O)O)NC(=O)CNC(=O)[C@H]([C@@H](C)CC)NC1=O)[C@@H](C)CC
As to B4, the Ki in assay [1] is 15.4 nM; in assay [2], 23.5 nM; in assay [3], 3.9 nM.

B5: SEQ ID NO: 1757 (peptide)
peptide: Ac-IWIAQALR[R8]IGDAFN[S5]Y[hPhe]A-NH2
modifications: staple 9-16
SMILES: CC[C@H](C)[C@H](NC(C)=O)C(=O)N[C@@H](Cc1c[nH]c2ccccc12)C(=O)N[C@H](C(=O)N[C@@H](C)C(=O)N[C@@H](CCC(N)=O)C(=O)N[C@@H](C)C(=O)N[C@@H](CC(C)C)C(=O)N[C@@H](CCCNC(=N)N)C(=O)N[C@]1(C)CCCCCCC=CCCC[C@@](C)(C(=O)N[C@@H](Cc2ccc(O)cc2)C(=O)N[C@@H](CCc2ccccc2)C(=O)N[C@@H](C)C(N)=O)NC(=O)[C@H](CC(N)=O)NC(=O)[C@H](Cc2ccccc2)NC(=O)[C@H](C)NC(=O)[C@H](CC(=O)O)NC(=O)CNC(=O)[C@H]([C@@H](C)CC)NC1=O)[C@@H](C)CC
Take B5: the inhibition constant Ki in assay [1] stood at 12.1 nM; in assay [2], 30.7 nM; in assay [3], 8 nM.

B6: SEQ ID NO: 1754 (peptide)
peptide: Ac-IWIAQALR[R8]IGDAFN[S5]YAA-NH2
modifications: staple 9-16
SMILES: CC[C@H](C)[C@H](NC(C)=O)C(=O)N[C@@H](Cc1c[nH]c2ccccc12)C(=O)N[C@H](C(=O)N[C@@H](C)C(=O)N[C@@H](CCC(N)=O)C(=O)N[C@@H](C)C(=O)N[C@@H](CC(C)C)C(=O)N[C@@H](CCCNC(=N)N)C(=O)N[C@]1(C)CCCCCCC=CCCC[C@@](C)(C(=O)N[C@@H](Cc2ccc(O)cc2)C(=O)N[C@@H](C)C(=O)N[C@@H](C)C(N)=O)NC(=O)[C@H](CC(N)=O)NC(=O)[C@H](Cc2ccccc2)NC(=O)[C@H](C)NC(=O)[C@H](CC(=O)O)NC(=O)CNC(=O)[C@H]([C@@H](C)CC)NC1=O)[C@@H](C)CC
Take B6: the Ki in assay [1] stood at 51.8 nM; in assay [2], 102 nM; in assay [3], 20.3 nM.

B7: SEQ ID NO: 1775 (peptide)
peptide: Ac-IWIAQALR[R8]IGDAFN[S5]AYA-NH2
modifications: staple 9-16
SMILES: CC[C@H](C)[C@H](NC(C)=O)C(=O)N[C@@H](Cc1c[nH]c2ccccc12)C(=O)N[C@H](C(=O)N[C@@H](C)C(=O)N[C@@H](CCC(N)=O)C(=O)N[C@@H](C)C(=O)N[C@@H](CC(C)C)C(=O)N[C@@H](CCCNC(=N)N)C(=O)N[C@]1(C)CCCCCCC=CCCC[C@@](C)(C(=O)N[C@@H](C)C(=O)N[C@@H](Cc2ccc(O)cc2)C(=O)N[C@@H](C)C(N)=O)NC(=O)[C@H](CC(N)=O)NC(=O)[C@H](Cc2ccccc2)NC(=O)[C@H](C)NC(=O)[C@H](CC(=O)O)NC(=O)CNC(=O)[C@H]([C@@H](C)CC)NC1=O)[C@@H](C)CC
As for B7, the Ki was found to be 12.6 nM in assay [1], 112 nM in assay [2] and 5.3 nM in assay [3].

B8: SEQ ID NO: 1769 (peptide)
peptide: Ac-IWIAQALR[R8]IGDAFN[S5][Phe(4-F)]YA-NH2
modifications: staple 9-16
SMILES: CC[C@H](C)[C@H](NC(C)=O)C(=O)N[C@@H](Cc1c[nH]c2ccccc12)C(=O)N[C@H](C(=O)N[C@@H](C)C(=O)N[C@@H](CCC(N)=O)C(=O)N[C@@H](C)C(=O)N[C@@H](CC(C)C)C(=O)N[C@@H](CCCNC(=N)N)C(=O)N[C@]1(C)CCCCCCC=CCCC[C@@](C)(C(=O)N[C@@H](Cc2ccc(F)cc2)C(=O)N[C@@H](Cc2ccc(O)cc2)C(=O)N[C@@H](C)C(N)=O)NC(=O)[C@H](CC(N)=O)NC(=O)[C@H](Cc2ccccc2)NC(=O)[C@H](C)NC(=O)[C@H](CC(=O)O)NC(=O)CNC(=O)[C@H]([C@@H](C)CC)NC1=O)[C@@H](C)CC
Take B8: the values for the Ki in assay [1], in assay [2] and in assay [3] were 26 nM, 200 nM and 14.9 nM, respectively.

B9: SEQ ID NO: 1755 (peptide)
peptide: Ac-IWIAQALR[R8]IGDAFN[S5]YLA-NH2
modifications: staple 9-16
SMILES: CC[C@H](C)[C@H](NC(C)=O)C(=O)N[C@@H](Cc1c[nH]c2ccccc12)C(=O)N[C@H](C(=O)N[C@@H](C)C(=O)N[C@@H](CCC(N)=O)C(=O)N[C@@H](C)C(=O)N[C@@H](CC(C)C)C(=O)N[C@@H](CCCNC(=N)N)C(=O)N[C@]1(C)CCCCCCC=CCCC[C@@](C)(C(=O)N[C@@H](Cc2ccc(O)cc2)C(=O)N[C@@H](CC(C)C)C(=O)N[C@@H](C)C(N)=O)NC(=O)[C@H](CC(N)=O)NC(=O)[C@H](Cc2ccccc2)NC(=O)[C@H](C)NC(=O)[C@H](CC(=O)O)NC(=O)CNC(=O)[C@H]([C@@H](C)CC)NC1=O)[C@@H](C)CC
With B9, the results for the Ki in assay [1], in assay [2] and in assay [3] were 9 nM, 18.9 nM and 23.4 nM, respectively.

B10: SEQ ID NO: 1782 (peptide)
peptide: Ac-I[R8]IAQALR[St]IGDEFN[S8]YYA-NH2
modifications: staple 9-16, 2-9
notes: Row prints Ac-I$r8IAQALRStIGDEFN$s8YYA-NH2
Take B10: the Ki is 1.1 nM in assay [1], 22 nM in assay [2] and 1.1 nM in assay [3].

B11: SEQ ID NO: 1783 (peptide)
peptide: Ac-IWIA[S5]ALR[St]IGDEFN[S8]YYA-NH2
modifications: staple 9-16, 5-9
notes: Row prints Ac-IWIA$ALRStIGDEFN$s8YYA-NH2
Turning to B11, the Ki in assay [1] worked out at 1.6 nM; in assay [2], 19.2 nM; in assay [3] it was 1.6 nM.

B12: SEQ ID NO: 1756 (peptide)
peptide: Ac-IWIAQALR[R8]IGDAFN[S5]Y[Cha]A-NH2
modifications: staple 9-16
SMILES: CC[C@H](C)[C@H](NC(C)=O)C(=O)N[C@@H](Cc1c[nH]c2ccccc12)C(=O)N[C@H](C(=O)N[C@@H](C)C(=O)N[C@@H](CCC(N)=O)C(=O)N[C@@H](C)C(=O)N[C@@H](CC(C)C)C(=O)N[C@@H](CCCNC(=N)N)C(=O)N[C@]1(C)CCCCCCC=CCCC[C@@](C)(C(=O)N[C@@H](Cc2ccc(O)cc2)C(=O)N[C@@H](CC2CCCCC2)C(=O)N[C@@H](C)C(N)=O)NC(=O)[C@H](CC(N)=O)NC(=O)[C@H](Cc2ccccc2)NC(=O)[C@H](C)NC(=O)[C@H](CC(=O)O)NC(=O)CNC(=O)[C@H]([C@@H](C)CC)NC1=O)[C@@H](C)CC
Turning to B12, the Ki in assay [1] was found to be 8.6 nM; in assay [2], 28.9 nM; in assay [3] it was 24.1 nM.
Taken in the same sequence, the figures for IWIAQALRAIGDAANAYYA (N-terminal Ac; $r8 at 9 and $ at 16 (crosslinked); 2Nal at 14; C-terminal NH2) [SEQ ID NO: 1746] were 19.1 nM, 35.1 nM and 4.4 nM.
